In US20200172626A1 one finds % of 4-1BB-positive CD8 T cells data, which are given here for 1 substance.

This assay deals with human 4-1BB expressed on cells (human) (UniProt Q07011). Briefly: flow cytometry dot plot (CD8-BV510 against BBK-4-Dylight488) on human CD8+ T cells activated with anti-CD3 for 2 days; antibody at 25 ng/ml, anti-mIgG-Dylight488.
Chain of human 4-1BB expressed on cells (human) (Q07011 24-255 limits assumed): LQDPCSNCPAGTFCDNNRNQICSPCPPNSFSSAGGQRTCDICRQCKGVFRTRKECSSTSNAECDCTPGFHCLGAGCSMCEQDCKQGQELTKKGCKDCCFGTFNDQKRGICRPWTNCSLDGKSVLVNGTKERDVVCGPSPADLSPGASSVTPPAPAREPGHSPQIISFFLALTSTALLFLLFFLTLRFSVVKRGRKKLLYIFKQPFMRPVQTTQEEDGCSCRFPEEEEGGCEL

The substance BBK-4 murine anti-human 4-1BB antibody came in with a % of 4-1BB-positive CD8 T cells of 1.72%.
